Source: article PMC7354485 (2020)

Experiments:
[1] = biological target: pUL53 hook peptide (Human cytomegalovirus) (UniProt P16794); conditions: cited from earlier work
[2] = biological target: pUL50 (Human cytomegalovirus) (UniProt P16791); experiment: competition with pUL50-pUL53 interaction; conditions: cited from earlier work
[3] = biological target: T1, BFRF1 (Epstein-Barr virus, UniProt P03185); experiment: fluorescence polarization
T1 chain: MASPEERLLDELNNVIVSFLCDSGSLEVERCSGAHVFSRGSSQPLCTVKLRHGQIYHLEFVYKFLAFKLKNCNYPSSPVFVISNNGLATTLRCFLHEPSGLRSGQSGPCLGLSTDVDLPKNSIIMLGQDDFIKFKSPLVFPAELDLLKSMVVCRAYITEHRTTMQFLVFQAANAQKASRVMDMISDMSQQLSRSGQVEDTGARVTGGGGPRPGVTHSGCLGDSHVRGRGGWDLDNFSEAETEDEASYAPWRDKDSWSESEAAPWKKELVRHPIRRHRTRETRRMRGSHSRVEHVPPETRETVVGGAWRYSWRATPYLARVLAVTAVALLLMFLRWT

[4] = biological target: T2, pUL50 (Human cytomegalovirus, UniProt P16791); experiment: competition with pUL50-pUL53 interaction
T2 chain: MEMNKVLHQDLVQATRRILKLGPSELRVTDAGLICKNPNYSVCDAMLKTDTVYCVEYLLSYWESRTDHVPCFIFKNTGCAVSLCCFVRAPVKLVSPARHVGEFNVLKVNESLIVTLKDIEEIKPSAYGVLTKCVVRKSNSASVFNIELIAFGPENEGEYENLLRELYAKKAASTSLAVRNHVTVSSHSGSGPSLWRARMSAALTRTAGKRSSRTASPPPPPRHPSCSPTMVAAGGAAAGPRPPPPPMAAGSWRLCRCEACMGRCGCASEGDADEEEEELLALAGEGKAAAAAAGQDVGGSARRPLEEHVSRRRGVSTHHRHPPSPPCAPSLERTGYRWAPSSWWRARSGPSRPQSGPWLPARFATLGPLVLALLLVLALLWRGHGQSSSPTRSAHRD

[5] = biological target: T2, pUL50; experiment: fluorescence polarization

Chain of pUL53 hook peptide (Human cytomegalovirus) (P16794 whole entry): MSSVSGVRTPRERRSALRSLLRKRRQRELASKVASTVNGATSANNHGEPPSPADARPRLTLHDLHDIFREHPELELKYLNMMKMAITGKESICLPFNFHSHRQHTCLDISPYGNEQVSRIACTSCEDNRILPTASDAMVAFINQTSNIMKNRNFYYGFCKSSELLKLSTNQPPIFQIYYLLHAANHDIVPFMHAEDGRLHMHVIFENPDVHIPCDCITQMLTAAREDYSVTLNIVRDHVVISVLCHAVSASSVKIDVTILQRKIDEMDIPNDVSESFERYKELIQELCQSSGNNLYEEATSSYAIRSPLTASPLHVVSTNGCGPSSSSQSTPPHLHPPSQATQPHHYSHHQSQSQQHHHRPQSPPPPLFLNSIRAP

pUL50 (from UniProt P16791)
Kd [1]: 120 nM

pUL53 hook peptide
IC50 [2]: 110 nM

DRSHFSLRDFFRGISANFELGKDFLREMNTPIH [BFLF2 hook peptide 78-110]
Kd [3]: 117 nM

LTLHDLHDIFREHPELELKYLNMMKMAIT [pUL53 hook peptide]
IC50 [4]: 50 nM

LTLHDLHDIFREHPELELKYLNMMKMAIT [pUL53 hook peptide 59-87]
Kd [5]: 120 nM
